Source: patent publication US20240424120A1
Starred links: 1 amine or outer side, 2 acyl side, 3 side chain; linkers in the order of their positions; H or OH if unused. Positions of bridges follow the written chain, without caps; N, C: chain ends. Non-standard residues stand in square brackets, D forms with d. No end group written: not given here. TATA = O=C(CC[*:1])N1CN(C(=O)CC[*:2])CN(C(=O)CC[*:3])C1; 1Nal = N[C@@H](Cc1cccc2ccccc12)C(=O)O; Hyp = O=C(O)[C@@H]1C[C@@H](O)CN1; hArg = N=C(N)NCCCC[C@H](N)C(=O)O; Pen = CC(C)(S)[C@H](N)C(=O)O; hCys = N[C@@H](CCS)C(=O)O; βAla = NCCC(=O)O; Sar = CNCC(=O)O

Tests used:
Human Nectin-4 (human) [1] = target: Human Nectin-4 (human) (UniProt Q96NY8); experiment: SPR (Biacore 8K), Nectin-4 amine-coupled on CM5 chip, compound as analyte, multi-cycle kinetics, 1:1 model
Chain of Human Nectin-4 (human) (Q96NY8 32-349 limits assumed): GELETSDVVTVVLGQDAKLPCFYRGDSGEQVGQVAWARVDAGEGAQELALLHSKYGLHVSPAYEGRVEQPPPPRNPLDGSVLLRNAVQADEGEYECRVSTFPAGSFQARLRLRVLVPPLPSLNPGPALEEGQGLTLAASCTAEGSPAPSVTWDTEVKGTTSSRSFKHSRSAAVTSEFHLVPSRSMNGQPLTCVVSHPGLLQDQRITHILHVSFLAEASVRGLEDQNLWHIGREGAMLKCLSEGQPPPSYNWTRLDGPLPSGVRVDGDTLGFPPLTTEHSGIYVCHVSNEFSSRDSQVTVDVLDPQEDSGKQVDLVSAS

Human Nectin-4 (human) [2] = target: Human Nectin-4 (human) (UniProt Q96NY8); experiment: SPR (Biacore 8K), Nectin-4 amine-coupled on CM5 chip, compound as analyte, multi-cycle kinetics, 1:1 model; average of two tests

Kd (Human Nectin-4 (human) [1]) [nM] | Kd (Human Nectin-4 (human) [2]) [nM] | Binder
4.13 |  | [βAla][Sar][Sar][Sar][Sar][Sar][Sar][Sar][Sar][Sar][Sar]K[Sar]DCP[1Nal][dD][Pen]M[hArg]DWSTP[Hyp]W[hCys] (not fully specified (C-terminus); cysteine pairing not given here; also: further groups not given here, drug-linker INT_1 coupled, site not given here, acetate salt) [Acetate salt of PDC_3]
1.4 |  | [βAla][Sar][Sar][Sar][Sar][Sar][Sar][Sar][Sar][Sar][Sar]K[hArg]DCP[1Nal][dD][Pen]M[hArg]DWSTP[Hyp]WC-NH2 (lactam 12-14; linker 15-19-29 via TATA; also: drug-linker INT_1 coupled, site not given here, acetate salt) [Acetate salt of PDC_1]
 | 0.43 | [βAla][Sar][Sar][Sar][Sar][Sar][Sar][Sar][Sar][Sar][Sar]K[Sar]DCP[1Nal][dD][Pen]M[hArg]DWSTP[Hyp]WC-NH2 (lactam 12-14; linker 15-19-29 via TATA; also: drug-linker INT_1 coupled, site not given here, acetate salt) [Acetate salt of PDC_2]
